pIC50, pKd: −log10 of the molar value.
How the values were obtained:
HLA-A*02:01 [1] = assay: IEDB peptide-MHC binding, purified MHC/competitive/fluorescence; filed as Kd, often an IC50 or EC50 that approximates it; ≥ and ≤ were set here for values at or beyond the usual limits of such assays; conditions: source organism: Mycobacterium tuberculosis variant bovis BCG str. Pasteur 1173P2
HLA-A*02:11 = assay: as above; conditions: source organism: Mycobacterium tuberculosis variant bovis BCG str. Pasteur 1173P2
HLA-B*15:42 = assay: as above; conditions: source organism: Mycobacterium tuberculosis variant bovis BCG str. Pasteur 1173P2
HLA-B*27:20 = assay: as above; conditions: source organism: Mycobacterium tuberculosis variant bovis BCG str. Pasteur 1173P2
HLA-B*45:06 = assay: as above; conditions: source organism: Mycobacterium tuberculosis variant bovis BCG str. Pasteur 1173P2
HLA-B*83:01 = assay: as above; conditions: source organism: Mycobacterium tuberculosis variant bovis BCG str. Pasteur 1173P2
HLA-C*04:01 = assay: as above; conditions: source organism: Mycobacterium tuberculosis variant bovis BCG str. Pasteur 1173P2
HLA-B*07:02 [2] = assay: IEDB peptide-MHC binding, purified MHC/competitive/radioactivity; ≥ and ≤ were set here for values at or beyond the usual limits of such assays; conditions: source organism: dengue virus type 4
HLA-B*35:01 [3] = assay: IEDB peptide-MHC binding, purified MHC/competitive/radioactivity; filed as Kd, often an IC50 or EC50 that approximates it; ≥ and ≤ were set here for values at or beyond the usual limits of such assays; conditions: source organism: Dengue virus 4 Philippines/H241/1956
HLA-B*53:01 = assay: as above; conditions: source organism: Dengue virus 4 Philippines/H241/1956
HLA-A*01:01 = assay: IEDB peptide-MHC binding, purified MHC/direct/fluorescence; filed as Kd, often an IC50 or EC50 that approximates it; ≥ and ≤ were set here for values at or beyond the usual limits of such assays; conditions: source organism: Vibrio cholerae
HLA-A*02:01 [4] = assay: as above; conditions: source organism: Vibrio cholerae
HLA-A*03:01 = assay: as above; conditions: source organism: Vibrio cholerae
HLA-A*11:01 = assay: as above; conditions: source organism: Vibrio cholerae
HLA-A*26:01 = assay: as above; conditions: source organism: Vibrio cholerae
HLA-A*31:01 = assay: as above; conditions: source organism: Vibrio cholerae
HLA-A*69:01 = assay: as above; conditions: source organism: Vibrio cholerae
HLA-B*07:02 [5] = assay: as above; conditions: source organism: Vibrio cholerae
HLA-B*08:01 = assay: as above; conditions: source organism: Vibrio cholerae
HLA-B*15:01 = assay: as above; conditions: source organism: Vibrio cholerae
HLA-B*27:05 = assay: as above; conditions: source organism: Vibrio cholerae
HLA-B*35:01 [6] = assay: as above; conditions: source organism: Vibrio cholerae
HLA-B*40:01 = assay: as above; conditions: source organism: Vibrio cholerae
HLA-B*44:02 = assay: as above; conditions: source organism: Vibrio cholerae
HLA-B*58:01 = assay: as above; conditions: source organism: Vibrio cholerae
HLA-C*06:02 = assay: as above; conditions: source organism: Vibrio cholerae 2740-80
HLA-C*12:03 = assay: as above; conditions: source organism: Vibrio cholerae 2740-80
HLA-A*02:50 = assay: IEDB peptide-MHC binding, purified MHC/competitive/fluorescence; filed as Kd, often an IC50 or EC50 that approximates it; ≥ and ≤ were set here for values at or beyond the usual limits of such assays; conditions: source organism: Vibrio cholerae 2740-80
HLA-B*46:01 = assay: as above; conditions: source organism: Vibrio cholerae 2740-80

AEFGPWQTV
pKd (HLA-A*02:01 [1]): 5.78
pKd (HLA-A*02:11): 6.90
pKd (HLA-B*15:42): ≤ 5.30
pKd (HLA-B*27:20): 6.73
pKd (HLA-B*45:06): ≤ 5.30
pKd (HLA-B*83:01): ≤ 5.30
pKd (HLA-C*04:01): ≤ 5.30

LPSIVREAL
pIC50 (HLA-B*07:02 [2]): 9.51
pKd (HLA-B*35:01 [3]): 7.08
pKd (HLA-B*53:01): 7.39

MMFDAMGAL
pKd (HLA-A*01:01): 4.95
pKd (HLA-A*02:01 [4]): 6.48
pKd (HLA-A*03:01): 5.84
pKd (HLA-A*11:01): 5.03
pKd (HLA-A*26:01): 5.91
pKd (HLA-A*31:01): 6.04
pKd (HLA-A*69:01): 7.48
pKd (HLA-B*07:02 [5]): 5.24
pKd (HLA-B*08:01): 5.24
pKd (HLA-B*15:01): 7.43
pKd (HLA-B*27:05): ≤ 4.70
pKd (HLA-B*35:01 [6]): 7.73
pKd (HLA-B*40:01): ≤ 4.70
pKd (HLA-B*44:02): ≤ 4.70
pKd (HLA-B*58:01): ≤ 4.70
pKd (HLA-C*06:02): 5.83
pKd (HLA-C*12:03): 7.34
pKd (HLA-A*02:50): 9.70
pKd (HLA-B*46:01): 7.64
